Reference: US20210054055A1
Where two headings read alike, the source gives them in different places.

What was measured:
[1] = target: Zika virus (ZIKV) virions, envelope protein E (Zika virus)
[2] = target: Dengue virus serotype 4 (DENV4) virions, envelope protein E (Dengue virus 4)
[3] = target: Dengue virus serotype 4 (DENV4) virions, envelope protein E (Dengue virus 4); remark: listed apart in the source
[4] = target: Zika virus (ZIKV) virions, envelope protein E (Zika virus); remark: listed apart in the source

## 1M7 (antibody)
[1]
  IC50 (read off the curve): 0.09 µg/mL

## 2D22 (antibody)
DENV
  EC50 (read off the curve): 0.08 µg/mL

## EDE1 mAb C8 (antibody)
[1]
  IC50 (read off the curve): 0.2 µg/mL

## EDE1 mAb C10 (antibody)
[2]
  EC50 (read off the curve): 0.2 µg/mL
DENV
  EC50 (read off the curve): 0.08 µg/mL
Dakar (Zika virus)
  FRNT50 (focus reduction neutralization on Vero cells): 28.5 ng/mL
[3]
  FRNT50 (focus reduction neutralization on Vero cells): 88.9 ng/mL
H/PF/2013 (Zika virus)
  FRNT50 (focus reduction neutralization on Vero cells): 16.2 ng/mL
MR766
  FRNT50 (focus reduction neutralization on Vero cells): 0.2 ng/mL

## ZKA78 (antibody)
[1]
  IC50 (read off the curve): 0.2 µg/mL

## ZKA190, human ZIKV-specific mAb (antibody)
[4]
  IC50 (read off the curve): 0.07 µg/mL
